{"source": "patent US6037145", "biological_target": "Z-Phe-Leu-Glu-4-nitranilide"}
{"substance": "recombinant V8 protease (V8D) (enzyme)", "values": [{"measurement": "enzyme activity after refolding", "result": 30, "unit": "µg/mL"}]}
